Laboratory results from patent US5661003A, “Water channel” (Marumo; Fumiaki, priority 1992, dated 1997).

Columns and labels:
WCH-1 water channel = target: T1, WCH-1 water channel (Rattus norvegicus, UniProt P34080); test: Effect of mercurial sulfhydryl reagent and reducing agent on Pf of WCH-1-injected oocytes; type: cell-based
T1 construct: The longest open reading frame encodes a 271-amino acid protein (Mr 28928); expressed in transfected cells; host or cells: Xenopus laevis oocytes injected with cRNA transcribed from WCH-1 in pSPORT
T1 sequence (P34080 1-271): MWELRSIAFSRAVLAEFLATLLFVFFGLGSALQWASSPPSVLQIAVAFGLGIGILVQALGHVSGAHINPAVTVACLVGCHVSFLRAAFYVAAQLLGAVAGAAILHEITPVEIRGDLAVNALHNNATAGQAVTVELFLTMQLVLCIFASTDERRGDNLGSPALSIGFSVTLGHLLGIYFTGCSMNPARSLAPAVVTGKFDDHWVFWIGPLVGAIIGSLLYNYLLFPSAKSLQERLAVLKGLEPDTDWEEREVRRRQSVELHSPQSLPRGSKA
Method: (§1) Capped cRNA was synthesized from WCH-1 in pSPORT vector using T7 RNA polymerase after linearization of the pSPORT vector. Oocytes were obtained from female Xenopus laevis and prepared as described in Dascal, N. CRC Crit. Rev. Biochem. 22, 317-373 (1987), then injected with […] or 20 ng of WCH-1 RNA (1 μg/μL) and incubated at 18° C. […] Oocytes were viewed by light transmitted through an Olympus phase-contrast microscope and imaged on a Hamamatsu SIT camera connected to ARGUS-200 image processing system. Images were obtained and stored at 20-s intervals.
(§2) Osmotic water permeability (Pf) was determined from an initial slope of a time curve of V/Vo (d (V/Vo)/dt), initial oocyte volume (Vo =9×10^-4 cm^3), initial oocyte surface area (S=0.045 cm^2), the molar volume of water (Vw =18 cm^3 /mol) by:
(§3) Pf=[Vo×d (V/Vo)/dt]/[S×Vw ×(osmin
To examine the effects of mercurial sulfhydryl reagents, oocytes were incubated in Barth's buffer containing 0.3 mM HgCl2 for 5 minutes prior to Pf measurements. The recovery of the inhibition by reducing agents was examined by 15 minutes incubation in a Barth's buffer containing 5 mM β-mercaptoethanol following 5-minute incubation in HgCl2.

Xenopus oocytes = test: Osmotic water permeability of Xenopus oocytes injected with WCH-1 RNA (videomicroscopy of osmotic volume increase); type: cell-based, Xenopus laevis
Method: To determine the osmic water permeability of oocytes injected with the WCH-1 transcript, volume increase caused by an imposed osmotic gradient was measured using videomicroscopy (Zhang, R. & Verkman, A. S. Am. J. Physiol. 260, C26-C34 (1991)).
as §1
Oocytes images were processed as described in Zhang, R. & Verkman, A. S. Am. J. Physiol. 260, C26-C34 (1991) and the projection area of the oocytes was calculated by automatic summation. Relative volume (V/Vo) was calculated from the area at time 0 (Ao) and at time t (A) by:
as §2, §3

## OCCS [B-mercaptoethanol, β-mercaptoethanol]
WCH-1 water channel; 5 mM mercaptoethanol for 15 minutes following incubation in 0.3 mM HgCl2
  Pf in WCH-1-injected oocytes after recovery with reducing agent: 63.1±25.8 ×10^-4 cm/sec

## [Cl][Hg][Cl] [HgCl2]
WCH-1 water channel; 0.3 mM HgCl2, five minutes, Pf without HgCl2 83.9±18.2
  Pf in WCH-1-injected oocytes after incubation in HgCl2: 44.5±3.6 ×10^-4 cm/sec

B1: WCH-1: vasopressin-regulated water channel localized in the kidney collecting tubule; expressed in oocytes by injection of its capped cRNA (protein, UniProt P34080 1-271, looked up)
Aquaporin-2: T1 sequence (P34080 1-271)
Xenopus oocytes; WCH-1-injected vs water-injected oocytes
  Pf in WCH-1-injected oocytes relative to Pf in water-injected oocytes: 3.5 times
Xenopus oocytes; oocytes injected with 20 ng WCH-1 RNA, 24 h incubation, transfer from 200 mOsm to 70 mOsm Barth's buffer, 24° C., mean±SEM
  Osmotic water permeability (Pf): 83.9±18.2 ×10^-4 cm/s
Xenopus oocytes; within 10 minutes, none of water-injected oocytes ruptured for more than 60 minutes
  Oocytes ruptured after transfer into the hypotonic solution: ten out of eleven
